Assay results from US20260207704A1, “STAPLED PEPTIDES AND METHODS THEREOF” (priority 2022, published 2026).
*1 amine or outer side, *2 acyl side, *3 side chain or, on linkers, in order; H or OH if unused. Bridges are numbered along the chain shown (N, C = ends). Primed or numbered codes have the meaning given here. [ ]: non-standard residue; d: D form. PyrS2(6) = (S)-3-amino-1-((pent-4-en-1-yloxy)carbonyl)pyrrolidine-3-carboxylic acid, stapled with another olefin-containing amino acid residue through the olefin group, O=C(OCCCC=[*:3])N1CC[C@@](N[*:1])(C(=O)[*:2])C1; B5(4) = 2-amino-2-(pent-4-en-1-yl)hept-6-enoic acid, stapled through each of its two olefin groups with other olefin-containing amino acid residues, O=C(C(CCCC=[*:3])(CCCC=[*:4])N[*:1])[*:2]; PyrS2″ = (S)-3-amino-1-((pent-4-en-1-yloxy)carbonyl)pyrrolidine-3-carboxylic acid (olefin stapling residue), C=CCCCOC(=O)N1CC[C@@](N[*:1])(C(=O)[*:2])C1; PyrS2(3) = (S)-3-amino-1-((pent-4-en-1-yloxy)carbonyl)pyrrolidine-3-carboxylic acid, olefin residue, C=CCCCOC(=O)N1CC[C@@](N[*:1])(C(=O)[*:2])C1; PyrS2(5) = (S)-3-amino-1-((pent-4-en-1-yloxy)carbonyl)pyrrolidine-3-carboxylic acid, C=CCCCOC(=O)N1CC[C@@](N[*:1])(C(=O)[*:2])C1; B5″ = 2-amino-2-(pent-4-en-1-yl)hept-6-enoic acid (bis-olefin stapling residue), C=CCCCC(CCCC=C)(N[*:1])C(=O)[*:2]; B5(5) = 2-amino-2-(pent-4-en-1-yl)hept-6-enoic acid (two olefin arms), C=CCCCC(CCCC=C)(N[*:1])C(=O)[*:2]; B5(3) = 2-amino-2-(pent-4-en-1-yl)hept-6-enoic acid, two olefin arms, C=CCCCC(CCCC=C)(N[*:1])C(=O)[*:2]; 2F3MeF(3) = aromatic amino acid residue, Cc1cccc(C[C@H](N[*:1])C(=O)[*:2])c1F; 2F3MeF″ = aromatic residue, Cc1cccc(C[C@H](N[*:1])C(=O)[*:2])c1F; Phe(3-COOH) = N[C@@H](Cc1cccc(C(=O)O)c1)C(=O)O; 2F3MeF = Cc1cccc(C[C@H](N[*:1])C(=O)[*:2])c1F; Bta = N[C@@H](Cc1csc2ccccc12)C(=O)O; αAllylPro = C=CC[C@@]1(C(=O)O)CCCN1; BztA = aromatic amino acid residue; 4mampiperidine = not defined here; tBuAla = CC(C)(C)C[C@H](N)C(=O)O; 3Thi = N[C@@H](Cc1ccsc1)C(=O)O; Cha = N[C@@H](CC1CCCCC1)C(=O)O; TriAzLys(3) = not defined here; hSer = N[C@@H](CCO)C(=O)O; BztA″ = aromatic residue; Orn = NCCC[C@H](N)C(=O)O; TfeGA = not defined here; AsnR = not defined here; GlnR = not defined here; sAla = not defined here; PL3 = not defined here; B5 = not defined here

Columns and labels:
beta-catenin (human) [1] = assay: fluorescence polarization; bin >200 nM
beta-catenin (human) [2] = assay: cell-based or functional assay
beta-catenin (human) [3] = assay: fluorescence polarization; bin >50 nM

Sequence of beta-catenin (human) (B6V8E6 146-665 limits assumed): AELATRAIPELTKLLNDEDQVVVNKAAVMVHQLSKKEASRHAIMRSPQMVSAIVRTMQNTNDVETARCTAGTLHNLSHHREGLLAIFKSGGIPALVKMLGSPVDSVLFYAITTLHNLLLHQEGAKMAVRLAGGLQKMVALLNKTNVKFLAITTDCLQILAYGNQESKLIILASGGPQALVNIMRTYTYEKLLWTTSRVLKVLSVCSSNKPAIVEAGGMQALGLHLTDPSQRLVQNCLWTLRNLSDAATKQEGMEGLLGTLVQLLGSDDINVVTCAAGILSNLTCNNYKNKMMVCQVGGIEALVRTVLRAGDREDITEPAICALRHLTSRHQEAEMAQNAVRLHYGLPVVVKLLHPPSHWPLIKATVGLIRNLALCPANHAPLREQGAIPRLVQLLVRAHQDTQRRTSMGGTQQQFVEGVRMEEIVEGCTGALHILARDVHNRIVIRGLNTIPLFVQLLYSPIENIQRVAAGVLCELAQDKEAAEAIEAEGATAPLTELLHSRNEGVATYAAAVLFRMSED

Binder | IC50 (beta-catenin (human) [1]) [nM] | NanoBRET Abs IC50 (beta-catenin (human) [2]) [nM] | IC50 (beta-catenin (human) [3]) [nM] | other results
Ac-[αAllylPro]D[tBuAla][B5(5)]D[Phe(3-COOH)]AAF[AsnR][PyrS2(5)][3Thi][Bta]K-NH2 (bridge 10-14; not fully specified (bridges); printed as Ac-PL3-Asp-Npg-B5-Asp-3COOHF-Ala-Ala-Phe-AsnR*3-PyrS2-3Thi-BztA-Lys*3-NH2; reading uncertain) [I-36] | < 750 | – | – | –
Ac-[αAllylPro]D[tBuAla][B5]D[Phe(3-COOH)][GlnR]AFL[PyrS2″][2F3MeF″][BztA″][(39N2spiroundecane)GlnR]A-NH2 (reading uncertain; also: staple links not given here, printed as Ac-PL3-Asp-Npg-B5-Asp-3COOHF-GlnR-Ala-Phe-Leu-PyrS2-2F3MeF-BztA-[39N2spiroundecane]GlnR-Ala-NH2) [I-130] | – | > 10000 | < 200 | –
Ac-[αAllylPro]D[tBuAla][B5(4)]D[TfeGA]FAFK[PyrS2″][2F3MeF][Bta][GlnR]A-NH2 (bridge 10-14; not fully specified (bridges); reading uncertain; also: Lys*3 and GlnR*3 marked *3) [I-123] | – | > 10000 | < 200 | –
Ac-[PL3]D[tBuAla][B5][hSer][Phe(3-COOH)]AAFK[PyrS2″][3Thi][BztA][GlnR]A-NH2 (staple 1-4 (inferred); bridge 10-14; not fully specified (residue 10, bridges); printed as Ac-PL3-Asp-Npg-B5-Hse-3COOHF-Ala-Ala-Phe-Lys*3-PyrS2-3Thi-BztA-GlnR*3-Ala-NH2; reading uncertain) [I-83] | < 750 | – | – | –
Ac-[PL3]D[tBuAla][B5][hSer][Phe(3-COOH)]QAFK[PyrS2″][3Thi][BztA][GlnR]A-NH2 (staple 1-4 (inferred); bridge 10-14; not fully specified (residue 10, bridges); printed as Ac-PL3-Asp-Npg-B5-Hse-3COOHF-Gln-Ala-Phe-Lys*3-PyrS2-3Thi-BztA-GlnR*3-Ala-NH2; reading uncertain; also: Lys10 and GlnR14 marked *3) [I-91] | < 750 | – | – | –
Ac-[αAllylPro]D[tBuAla][B5(5)]D[Phe(3-COOH)]AAF[AsnR][PyrS2(5)][3Thi][Bta][Orn]-NH2 (bridge 10-14; reading uncertain; also: PL3/B5/PyrS2 staple links not placed, printed as Ac-PL3-Asp-Npg-B5-Asp-3COOHF-Ala-Ala-Phe-AsnR*3-PyrS2-3Thi-BztA-Orn*3-NH2) [I-41] | < 750 | – | – | –
Ac-[αAllylPro]D[tBuAla][B5(4)]D[TfeGA]AAFK[PyrS2″][2F3MeF][Bta][GlnR]L-NH2 (bridge 10-14; not fully specified (bridges); reading uncertain; also: Lys*3 and GlnR*3 marked *3) [I-128] | – | – | < 200 | NanoBRET Abs IC50 (bin >3.0 uM) (beta-catenin (human) [2]): < 10000 nM
Ac-[αAllylPro]D[tBuAla][B5″]N[TfeGA]AAFK[PyrS2″][2F3MeF][Bta][GlnR]A-NH2 (bridge 10-14; not fully specified (bridges); reading uncertain; also: Lys*3 and GlnR*3 marked *3) [I-117] | < 750 | – | – | –
Ac-[αAllylPro]D[tBuAla][B5(4)]D[Phe(3-COOH)][GlnR](4aminopiperidine)AFL[PyrS2″][2F3MeF(3)][BztA][GlnR]A-NH2 (staple 1-4 (inferred); not fully specified (bridges); printed as Ac-PL3-Asp-Npg-B5-Asp-3COOHF-[4aminopiperidine]GlnR-Ala-Phe-Leu-PyrS2-2F3MeF-BztA-GlnR-Ala-NH2; reading uncertain) [I-94] | < 750 | – | – | –
Ac-[PL3][hSer][tBuAla][B5]D[Phe(3-COOH)]QAFK[PyrS2″][3Thi][BztA][GlnR]A-NH2 (staple 1-4 (inferred); bridge 10-14; not fully specified (residue 10, bridges); printed as Ac-PL3-Hse-Npg-B5-Asp-3COOHF-Gln-Ala-Phe-Lys*3-PyrS2-3Thi-BztA-GlnR*3-Ala-NH2; reading uncertain; also: Lys10 and GlnR14 marked *3) [I-89] | – | – | < 200 | –
Ac-[αAllylPro]D[tBuAla][B5]D[Phe(3-COOH)][GlnR](29N2spiroundecane)AFL[PyrS2″][2F3MeF″][BztA″][GlnR]A-NH2 (reading uncertain; also: staple links not given here, printed as Ac-PL3-Asp-Npg-B5-Asp-3COOHF-[29N2spiroundecane]GlnR-Ala-Phe-Leu-PyrS2-2F3MeF-BztA-GlnR-Ala-NH2) [I-132] | – | > 10000 | < 200 | –
Ac-[PL3]D[tBuAla][B5][hSer][Phe(3-COOH)]SAFK[PyrS2(5)][3Thi][BztA][GlnR]A-NH2 (staple 1-4 (inferred); bridge 10-14; not fully specified (residue 10, bridges); printed as Ac-PL3-Asp-Npg-B5-Hse-3COOHF-Ser-Ala-Phe-Lys*3-PyrS2-3Thi-BztA-GlnR*3-Ala-NH2; reading uncertain; also: Lys10 and GlnR14 marked *3) [I-87] | < 750 | – | – | –
Ac-[PL3]D[tBuAla][B5]N[Phe(3-COOH)]SAFK[PyrS2″][3Thi][BztA][GlnR]A-NH2 (staple 1-4 (inferred); bridge 10-14; not fully specified (residue 10, bridges); printed as Ac-PL3-Asp-Npg-B5-Asn-3COOHF-Ser-Ala-Phe-Lys*3-PyrS2-3Thi-BztA-GlnR*3-Ala-NH2; reading uncertain; also: Lys10 and GlnR14 marked *3) [I-86] | – | – | < 200 | –
Ac-[αAllylPro]D[tBuAla][B5(4)]D[Phe(3-COOH)][GlnR]AFL[PyrS2″][2F3MeF(3)][BztA][GlnR](4aminopiperidine)A-NH2 (staple 1-4 (inferred); not fully specified (bridges); printed as Ac-PL3-Asp-Npg-B5-Asp-3COOHF-GlnR-Ala-Phe-Leu-PyrS2-2F3MeF-BztA-[4aminopiperidine]GlnR-Ala-NH2; reading uncertain) [I-93] | < 750 | – | – | –
Ac-[αAllylPro]D[tBuAla][B5(3)]D[Phe(3-COOH)]AAFK[PyrS2(3)][2F3MeF″][Bta][AsnR]A-NH2 (bridge 10-14; not fully specified (bridges); printed as Ac-PL3-Asp-Npg-B5-Asp-3COOHF-Ala-Ala-Phe-Lys*3-PyrS2-2F3MeF-BztA-AsnR*3-Ala-NH2; reading uncertain) [I-59] | – | > 10000 | < 200 | –
Ac-[αAllylPro]D[tBuAla][B5(3)]D[Phe(3-COOH)]AAFK[PyrS2(3)][2F3MeF″][Bta][AsnR]A-NH2 (bridge 10-14; not fully specified (bridges); printed as Ac-PL3-Asp-Npg-B5-Asp-3COOHF-Ala-Ala-Phe-Lys*3-PyrS2-2F3MeF-BztA-AsnR*3-Ala-NH2; reading uncertain) [I-58] | – | > 10000 | < 200 | –
Ac-[αAllylPro]D[tBuAla][B5(4)]D[Phe(3-COOH)][sAla]AF[TriAzLys(3)][PyrS2(6)][3Thi][Bta]Q-NH2 (triazole 7-10; not fully specified (bridges); printed as Ac-PL3-Asp-Npg-B5-Asp-3COOHF-sAla*3-Ala-Phe-TriAzLys*3-PyrS2-3Thi-BztA-Gln-NH2; reading uncertain) [I-27] | < 750 | – | – | –
Ac-[αAllylPro]D[tBuAla][B5]D[Phe(3-COOH)][GlnR]AFL[PyrS2″][2F3MeF″][BztA″][GlnR](29N2spiroundecane)A-NH2 (reading uncertain; also: staple links not given here, printed as Ac-PL3-Asp-Npg-B5-Asp-3COOHF-GlnR-Ala-Phe-Leu-PyrS2-2F3MeF-BztA-[29N2spiroundecane]GlnR-Ala-NH2) [I-131] | < 750 | > 10000 | – | –
Ac-[αAllylPro]N[Cha][B5″]DQ[hSer]AF[GlnR][PyrS2″]F[Bta]K-NH2 (bridge 10-14; reading uncertain; also: PL3-B5 and PyrS2 links not placed, printed as Ac-PL3-Asn-Cha-B5-Asp-Gln-Hse-Ala-Phe-GlnR*3-PyrS2-Phe-BztA-Lys*3-NH2) [I-148] | < 750 | – | – | –
Ac-[αAllylPro]D[tBuAla][B5(4)]D[Phe(3-COOH)][GlnR]AFL[PyrS2″][2F3MeF(3)][BztA][GlnR](4mampiperidine)A-NH2 (staple 1-4 (inferred); not fully specified (bridges); printed as Ac-PL3-Asp-Npg-B5-Asp-3COOHF-GlnR-Ala-Phe-Leu-PyrS2-2F3MeF-BztA-[4mampiperidine]GlnR-Ala-NH2; reading uncertain) [I-96] | < 750 | – | – | –
